Here are results for one molecule from paper PMC10767048 (Nature Communications, 2024).

In this experiment the target is T1, bovine serum albumin (Bos taurus, UniProt P02769).
T1 construct: also called BSA
The experiment in a line: ELISA. The conditions noted are these: both partners purified. A general note: ELISA stands for enzyme-linked immunosorbent assay.

T1 sequence (P02769 25-607): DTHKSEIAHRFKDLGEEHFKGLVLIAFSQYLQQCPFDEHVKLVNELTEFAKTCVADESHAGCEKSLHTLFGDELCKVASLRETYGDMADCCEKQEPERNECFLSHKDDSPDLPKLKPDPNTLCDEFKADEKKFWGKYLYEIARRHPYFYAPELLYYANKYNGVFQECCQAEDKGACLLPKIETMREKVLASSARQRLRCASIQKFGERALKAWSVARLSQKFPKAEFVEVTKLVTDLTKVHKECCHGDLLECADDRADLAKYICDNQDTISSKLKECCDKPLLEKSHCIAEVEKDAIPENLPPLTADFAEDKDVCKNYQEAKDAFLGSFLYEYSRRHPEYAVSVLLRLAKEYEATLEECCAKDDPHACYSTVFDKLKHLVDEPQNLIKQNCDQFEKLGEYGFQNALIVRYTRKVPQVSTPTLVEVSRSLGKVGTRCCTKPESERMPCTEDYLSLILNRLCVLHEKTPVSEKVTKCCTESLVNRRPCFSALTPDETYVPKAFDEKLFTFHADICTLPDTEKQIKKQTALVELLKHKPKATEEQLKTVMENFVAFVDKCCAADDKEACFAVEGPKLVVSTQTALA

B1: nanobody D5 (camel VHH) (VHH)
VHH: AWQLVESGGGSVQPGGSLTLTCQASKSTFSTSGMRWERQAQGKGVEFVADISSDSTRKWYSDSVKGRFTISRSNWWRTVTLQMNDLKPEDTARYYCKDLESHHLRGQGTQVTVSS
notes: source: E. coli HB2151 (pComb3x phagemid), released with polymyxin B, purified (HisTrap)
Regarding B1, the binding result was “no binding (tested: 1 μg/ml)”.
